Substrate: O=[N+]([O-])c1ccc(O[C@H]2O[C@H](CO)[C@H](O)[C@H](O)[C@H]2O)cc1
Test: purified protein
Conditions: optimized conditions: 37 °C, pH 6.0, 10 min, 0-8 mM substrate

B1: Amuc_0517 (Akkermansia muciniphila ATCC BAA-835) (protein)
chain: QPRTTAILPVPGEKACRLPLPPYQAFCWFSADRGRWPGDGNRVLPWFGRTAPGNLLDSKPNPSTAKPGDHAMFALFHLKDGNFMAVLPVAAPDSLAWLKLERDGTFLVEAGSLGTSPAKPQAVLAVTATDKDIYRACSAVWDKALSLPFIKGRTLPREKKIYPEPFKYLGWCSWEQYKKNISSKLLEETARKLEASPVPVRWMLVDDGFQTQERLQLVSFQPRQDQFPRGWQPLMKHKSPKLKWMGLWHCYYGLWNGIHPRHRLDDETARGLVRTAKGKILPGDGSGGAGAFYTPFLQSVKDTGFDFVKIDVQAEYLKHADGLDNPVRHNTKCSEALEQACLKTGLSLVNCMAQGTVNIQNTRYSAVTRCSIDYKLGDEAMAKSHILQSYANTLWLGQTVWPDHDMFHSTDPACARLMAVSKAVSGGPVYLSDPADKLNPENIMPLVWSDGLLLRPLAPAVPLPDSVFPDALNENRLYRVIAPLPGQSAAVVVYNLKHPSPAEPVRGKISLEDYKNAAALLNGNAAEAYASLPAEGIAAYSAEGGRALTPAQPDLDVELTGFKDRLFIMAPIVQGWAVIGRRDKFLSPCALVSAPGYRENGLRFRVKESGPVVIWRGKGPVKAGNTPVRNLGNGFYELQFPVSDHPLDITVTAE
B1 was tested, and the Km was 8.2 mM.
